Paper PMC10572015

Assays:
[1] = target: endogenous PTB-containing squid proteins
[2] = target: phosphotyrosine-binding domain (PTB)-containing axonal proteins

| mean anterograde FAT rate, vesicle motility assay in isolated squid axoplasm; 100 nM GST–AICD co-perfused with an excess of Fe65 PTB2-6xHis as competitor (GST–AICD alone 1.20; Buffer X/2 1.64) [1] [µm/s] | mean retrograde FAT rate, vesicle motility assay in isolated squid axoplasm; 100 nM GST–AICD co-perfused with an excess of Fe65 PTB2-6xHis as competitor (GST–AICD alone 1.02; Buffer X/2 1.23) [1] [µm/s] | mean anterograde FAT rate, vesicle motility assay in isolated squid axoplasm perfused with 100 nM GST–AICD (Buffer X/2 1.64) [2] [µm/s] | mean retrograde FAT rate, vesicle motility assay in isolated squid axoplasm perfused with 100 nM GST–AICD (Buffer X/2 1.23) [2] [µm/s] | mean anterograde FAT rate, vesicle motility assay in isolated squid axoplasm perfused with 100 nM GST–AICDΔNPTY (GST–AICD 1.20; Buffer X/2 1.64) [2] [µm/s] | mean retrograde FAT rate, vesicle motility assay in isolated squid axoplasm perfused with 100 nM GST–AICDΔNPTY (GST–AICD 1.02; Buffer X/2 1.23) [2] [µm/s] | Substance |
| --- | --- | --- | --- | --- | --- | --- |
| 1.4 | 1.19 | 1.2 | 1.02 | – | – | GST–AICD (APP intracellular domain fused to glutathione-S-transferase) (domain or fragment) |
| – | – | – | – | 1.5 | 1.14 | GST–AICDΔNPTY (domain or fragment) |
